Experimental data taken from article doi:10.1101/2024.08.01.606155 (bioRxiv, 2024).

Target: the molecule itself
Test: SEC

B1: PMK3 (p38 MAPK of C. elegans), full length (enzyme, UniProt O44514 1-474, looked up)
chain: MASVPSSSSLPVSHVRRHEDVSTPSAPPTKRSNNQSQPPESYEPNTWLQQQREQEQQKKLAAENIKKQSIEATGNNEMVGEEEEDILSKPCGPHKRRFQFVMIRNITFAIPEGYDVEPNSIEYLGGGSFGNVIKTSAVCRDGLRRYVAIKKMREPFFDPHHARRIFRETKLLQLMRHDNIICALDIYTPDEENDFRDVYVVTEFAGRSLYQILKQQRDYGRRVLTDEHIKFIIYQIIRALKYIHSANIIHRDLKPGNLALTDDSDLMILDFGLARSLEKKDTSLTQYVQTRWYRSPEVIYWKIDSYTNLADMWSLGCIAAELLTGEPLFPGDEPNAQYQRITQLCGSPDEELLTKIENDNSSAIKAVIQSYTTHKRRNFRDVFSAHNPSEDFIDLLEKLLVLDPEKRITVEEAIQHPYLAEFSLPEDEPRADHIFDLDDSQARTRFEWRDAVWKEIMNYKRLSSSPLIPGEADR
  binding result: binds
